{
  "source": "patent US20250034266A1",
  "key": {"human CCR4 (human)": {"target": "T1, human CCR4 (human) (UniProt P51679)", "T1 sequence (looked up)": "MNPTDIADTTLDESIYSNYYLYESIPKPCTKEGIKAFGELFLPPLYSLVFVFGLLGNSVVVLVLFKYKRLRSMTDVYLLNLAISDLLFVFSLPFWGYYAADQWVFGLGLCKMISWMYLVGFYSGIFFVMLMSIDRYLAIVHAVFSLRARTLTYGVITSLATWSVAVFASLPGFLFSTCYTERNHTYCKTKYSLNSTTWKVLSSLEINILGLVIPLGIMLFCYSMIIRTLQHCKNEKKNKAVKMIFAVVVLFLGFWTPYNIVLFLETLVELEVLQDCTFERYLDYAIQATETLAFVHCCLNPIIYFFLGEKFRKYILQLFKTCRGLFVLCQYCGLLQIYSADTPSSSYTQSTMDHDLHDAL", "assay": "FACS on ExpiCHO-S-human CCR4 cells"}, "human CCR8 (human)": {"target": "human CCR8 (human) (UniProt P51685)", "sequence (P51685 whole entry)": "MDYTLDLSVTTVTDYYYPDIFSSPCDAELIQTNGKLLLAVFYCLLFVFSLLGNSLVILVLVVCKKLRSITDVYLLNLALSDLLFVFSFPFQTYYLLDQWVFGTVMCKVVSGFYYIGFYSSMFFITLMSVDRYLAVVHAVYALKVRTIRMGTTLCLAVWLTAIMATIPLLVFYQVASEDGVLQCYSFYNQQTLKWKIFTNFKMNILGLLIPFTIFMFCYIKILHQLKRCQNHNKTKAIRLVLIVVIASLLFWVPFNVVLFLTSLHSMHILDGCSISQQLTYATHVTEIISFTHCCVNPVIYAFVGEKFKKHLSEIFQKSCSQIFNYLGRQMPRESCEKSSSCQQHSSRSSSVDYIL", "assay": "cell-based or functional assay"}},
  "data": [
    {"binder": "Hu149-4 (antibody, human IgG1, V domains shown) VH: EVQLVESGGGLVQPGGSLKLSCAASGFTFNTYAMNWVRQASGKGLEWVGRIRSKSNFYATYYAASVKGRFTISRDDSKNTAYLQMNSLKTEDTAVYYCTRGRDYGSSYAMDYWGQGTLVTVSS VL: DIVMTQSPLSLPVTPGEPASISCRSSKSLLHSNANTYLYWFLQKPGQSPQLLIYRMSNLASGVPDRFSGSGSGTDFTLKISRVEAEDVGVYYCMQHLEYPLTFGGGTKVELK", "values": [
      {"measurement": "Max MFI", "setting": "human CCR4 (human)", "value": 44, "unit": "MFI"}
    ]},
    {"binder": "Hu149-12G1x (antibody, V domains shown, not shown: a dimerising Fc or GST) VH: EVQLVESGGGLVQPGGSLKLSCAASGFTFNTYAMNWVRQASGKGLEWVGRIRSKSNFYATAYAASVKGRFTISRDDSKNTAYLQMNSLKTEDTAVYYCTRGKEYGSSYAMDYWGQGTLVTVSS VL: DIVMTQSPLSLPVTPGEPASISCRSSKSLLHSNANTYLYWFLQKPGQSPQLLIYRMSNLASGVPDRFSGSGSGTDFTLKISRVEAEDVGVYYCMQHLEYPLTFGGGTKVELK", "values": [
      {"measurement": "EC50, ADCC reporter, F variant CD16a/NFAT-Jurkat, target CHO-K1-human CCR8 cells", "setting": "human CCR8 (human)", "value": 2.99, "unit": "pM"},
      {"measurement": "EC50, ADCC reporter, F variant CD16a/NFAT-Jurkat, target HuT78 cells", "setting": "human CCR8 (human)", "value": 4.28, "unit": "pM"},
      {"measurement": "EC50, ADCC reporter, V variant CD16a/NFAT-Jurkat, target CHO-K1-human CCR8 cells", "setting": "human CCR8 (human)", "value": 5.05, "unit": "pM"},
      {"measurement": "EC50, ADCC reporter, V variant CD16a/NFAT-Jurkat, target HuT78 cells", "setting": "human CCR8 (human)", "value": 4.58, "unit": "pM"},
      {"measurement": "EC50, ADCC with human PBMCs, target CHO-K1-human CCR8 cells", "setting": "human CCR8 (human)", "value": 0.828, "unit": "pM"},
      {"measurement": "Max (RLU), ADCC reporter, F variant CD16a/NFAT-Jurkat, target CHO-K1-human CCR8 cells", "setting": "human CCR8 (human)", "value": "8.27e+06", "unit": "RLU"},
      {"measurement": "Max (RLU), ADCC reporter, F variant CD16a/NFAT-Jurkat, target HuT78 cells", "setting": "human CCR8 (human)", "value": "1.56e+07", "unit": "RLU"},
      {"measurement": "Max (RLU), ADCC reporter, V variant CD16a/NFAT-Jurkat, target CHO-K1-human CCR8 cells", "setting": "human CCR8 (human)", "value": "4.13e+06", "unit": "RLU"},
      {"measurement": "Max (RLU), ADCC reporter, V variant CD16a/NFAT-Jurkat, target HuT78 cells", "setting": "human CCR8 (human)", "value": "8.88e+06", "unit": "RLU"},
      {"measurement": "Max specific lysis (%), ADCC with human PBMCs, target CHO-K1-human CCR8 cells", "setting": "human CCR8 (human)", "value": 53, "unit": "%"}
    ]},
    {"binder": "CCL1 (CN-07, Almac) (ligand, UniProt P22362 24-96, looked up) KSMQVPFSRCCFSFAEQEIPLRAILCYRNTSSICSNEGLIFKLKRGKEACALDTVGWVQRHRKMLRHCPSKRK", "values": [
      {"measurement": "β-arrestin recruitment EC50 (CHO-K1 cells co-expressing PK-tagged human CCR8 and EA)", "setting": "human CCR8 (human)", "value": 288, "unit": "pM"}
    ]}
  ]
}
